In experiment [1] the target is T1, potato lectin (Sigma) (potato, UniProt Q9S8M0 23-323).
T1 construct: Bought glycoprotein, coated on ELISA plates
T1 sequence (looked up): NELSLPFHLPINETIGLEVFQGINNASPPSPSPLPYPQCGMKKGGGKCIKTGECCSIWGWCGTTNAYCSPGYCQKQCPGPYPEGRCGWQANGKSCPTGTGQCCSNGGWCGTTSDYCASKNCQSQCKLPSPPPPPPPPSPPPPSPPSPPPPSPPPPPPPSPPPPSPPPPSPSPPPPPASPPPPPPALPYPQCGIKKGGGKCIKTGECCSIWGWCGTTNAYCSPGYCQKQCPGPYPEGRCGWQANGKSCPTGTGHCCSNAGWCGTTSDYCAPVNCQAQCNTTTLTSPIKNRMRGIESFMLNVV
As to the kind of experiment: microcapsule retention; L: amine capsules, BS3 two-step, 0.1 ug VHH/cm2; potato lectin coat 10 ug/ml; 10% coverage.

The target in experiment [2] is T1, potato lectin (Sigma). Put plainly: microcapsule retention; H: amine capsules, BS3 one-step, 0.1 ug VHH/cm2; potato lectin coat 1 ug/ml; 100% coverage.
Experiment [3] addresses T1, potato lectin (Sigma). As to the kind of experiment: microcapsule retention; K: amine capsules, BS3 two-step, 1 ug VHH/cm2; potato lectin coat 100 ug/ml; 100% coverage.
Experiment [4] has as its target T1, potato lectin (Sigma). As to the kind of experiment: microcapsule retention; G: amine capsules, BS3 one-step, 1 ug VHH/cm2; potato lectin coat 1 ug/ml; 100% coverage.
Experiment [5] has as its target T1, potato lectin (Sigma). Put plainly: microcapsule retention; G: amine capsules, BS3 one-step, 1 ug VHH/cm2; potato lectin coat 1 ug/ml; 10% coverage.
Experiment [6] addresses T1, potato lectin (Sigma). As to the kind of experiment: microcapsule retention; G: amine capsules, BS3 one-step, 1 ug VHH/cm2; potato lectin coat 10 ug/ml; 100% coverage.
The target of experiment [7] is T1, potato lectin (Sigma). As to the kind of experiment: microcapsule retention; C: carboxyl capsules, EDC/Sulfo-NHS, 1 ug VHH/cm2; potato lectin coat 10 ug/ml; 100% coverage.
Experiment [8] has as its target T1, potato lectin (Sigma). Put plainly: microcapsule retention; K: amine capsules, BS3 two-step, 1 ug VHH/cm2; potato lectin coat 1 ug/ml; 100% coverage.
For experiment [9], the target named is T1, potato lectin (Sigma). Put plainly: microcapsule retention; H: amine capsules, BS3 one-step, 0.1 ug VHH/cm2; potato lectin coat 100 ug/ml; 100% coverage.
Experiment [10] deals with T1, potato lectin (Sigma). As to the kind of experiment: microcapsule retention; K: amine capsules, BS3 two-step, 1 ug VHH/cm2; potato lectin coat 10 ug/ml; 10% coverage.
Experiment [11] concerns grass leaf surface. Put plainly: VHH binding to leaf discs (microscopy). The settings on record: 5 μg/ml in PBS, anti-histidine Alexa-488 detection. The method, then: (§1) VHH binding to non-fixed leaf discs of potato (variety Désirée), black nightshade, grass, wheat or azalea was investigated. For comparison, binding of CBM3a to non-fixed leaf discs of potato (variety Désirée) was analyzed in parallel. Leaf discs were prepared by punching a fresh potato leaf with a 5 mm belt hole puncher tool. Leaf discs were put immediately in wells of a 96-well plate containing 200 μl per well 5% MPBS or PBS, and incubated for 30 minutes. Leaf discs were transferred to solutions containing 5 μg/ml VHH antibody fragment, respectively 5 μg/ml CBM3a in 2% MPBS or PBS and incubated for 60-90 minutes. Unbound VHH or CBM3a proteins were removed by washing three times with 2% MPBS or PBS. Bound VHH or CBM3a proteins were detected with incubation with monoclonal mouse anti-histidine antibodies directly conjugated with Alexa-488 fluorescent dye (Abd Serotec) in 1% MPBS for 1 hour. Unbound antibodies were removed by washing three times with PBS. Leaf discs were put on glass slides, covered with cover slips, and analyzed by microscopy or on a macrozoom microscope system (Nikon) or a SP5 confocal microscope system (Leica).

In experiment [12] the test system is black nightshade leaf surface. As to the kind of experiment: VHH binding to leaf discs (microscopy). The settings on record: 5 μg/ml in PBS, anti-histidine Alexa-488 detection. The method, then: as §1
For experiment [13], the system named is intact living potato pot plants. Put plainly: VHH binding to intact living plants. The arrangement: species or system potato (variety Désirée). The settings on record: leaves attached to potato pot plant submerged in VHH solution in PBS, 1 hour. The method, then: Binding of VHH to intact living plants was investigated on potato pot plants (variety Désirée). Compound leaves of intact living plants were submersed in solutions of hexahistidine-tagged VHH in PBS, or PBS alone for control conditions, leaving the compound leaves attached to the plants. VHH were allowed to bind for 1 hour. Next, the compound leaves still attached to the plants were washed five times in PBS in Erlenmeyer flasks. Different leaves and petiole sections were sampled. Bound VHH were detected by incubation with monoclonal mouse anti-histidine antibodies directly conjugated with Alexa-488 fluorescent dye (Abd Serotec) in PBS for 1 hour. Unbound anti-histidine antibodies were removed by washing five times with PBS. Whole leaves, leaf discs, or petiole sections were analyzed for bound VHH with microscopy.

In experiment [14] the target is unrelated antigens. Put plainly: VHH-coupled Uvitex OB microcapsules retained on wells coated with unrelated antigen; 100% surface coverage.
The target of experiment [15] is T1, potato lectin (Sigma). As to the kind of experiment: ELISA, potato lectin coated at 100 ug/ml, VHH at 3 ug/ml, anti-histidine detection. The protocol: ELISA plates (Maxisorp, Nunc) coated with 100 μl per well 100 μg/ml potato lectin (Sigma) in PBS were coated at 4° C. overnight and coating was continued at room temperature for 1 hour on the next day. Plates were washed three times with PBS/0.05%-TWEEN®-20 and blocked with 5% skimmed milk in PBS for 1 hour. VHH (3 μg/ml) were transferred to the potato lectin-coated plates and VHH antibody fragments were allowed to bind for 1 hour at room temperature. Bound VHH were detected with sequential incubations with monoclonal mouse anti-histidine antibodies (Abd Serotec) and rabbit anti-mouse IgG whole molecule antibodies conjugated with alkaline phosphatase (RaM/AP) (Sigma) in 1% MPBS/0.05%-TWEEN®-20. Unbound antibodies were removed by washing three times with PBS/0.05%-TWEEN®-20 after each antibody incubation. The plates were washed an additional two times with PBS and 100 μl pNPP disodium hexahydrate substrate (Sigma) was added to each well and the absorbance at 405 nm was measured (see Table 2).

Experiment [16] concerns the target unrelated antigens. As to the kind of experiment: VHH-coupled lambda-cyhalothrin microcapsules retained on wells coated with unrelated antigen; 20% surface coverage.
The target in experiment [17] is unrelated antigens. As to the kind of experiment: VHH-coupled Uvitex microcapsules retained on wells coated with unrelated antigen; 20% surface coverage.

With Control VHH, the microcapsule counts (microcapsules) in experiment [1] was determined as 186; in experiment [2], 173; in [3] it was 866; in experiment [4] it was 46; in [5], 7; in experiment [6], 104. The microcapsule counts (microcapsules) is 265 in experiment [7], 617 in experiment [8], 622 in experiment [9] and 197 in experiment [10].

B1: VHH 3E6 (VHH)
VHH: QVQLQESGGGLVQPGGTLSLSCAASGFNVRWYGMGWFRQAPGKEREGVACISALQETTAYADSVKGRFTLSRDNPKNTLSLQMNNLQPEDTGVYYCATTDCDDSSRMTYTSYLGQGTQVTVSS
notes: also called Monovalent VHH 3E6
Turning to B1, the “binding to native grass leaf surface” value in [11] was “binding to leaf surface and wounded plant tissue”; in experiment [11] (listed as 3E6), “bind specifically”. Besides, the “binding to native black nightshade leaf surface” value in experiment [12] is “binding leaf surface, glandular trichomes, and leaf hairs”; in experiment [12] (listed as 3E6) it was “bind specifically”. For the same molecule, the “binding to an intact living plant” value in experiment [13] is “binding leaf surface, stomata, glandular trichomes, and leaf hairs”. The area of bound microcapsules in experiment [14] was 84.5. Further, in experiment [15], the “absorbance at 405 nm” value was determined as 4. In addition, in [16], the counts of bound microcapsules (microcapsules) came to 601. Besides, the surface area of bound microcapsules in experiment [17] stood at 27.7.
